Laboratory results reported in PMC9475542 (2022).

Target: DNMT1 (Homo sapiens, UniProt P26358)
Assay: ELISA

Sequence of DNMT1 (P26358 whole entry): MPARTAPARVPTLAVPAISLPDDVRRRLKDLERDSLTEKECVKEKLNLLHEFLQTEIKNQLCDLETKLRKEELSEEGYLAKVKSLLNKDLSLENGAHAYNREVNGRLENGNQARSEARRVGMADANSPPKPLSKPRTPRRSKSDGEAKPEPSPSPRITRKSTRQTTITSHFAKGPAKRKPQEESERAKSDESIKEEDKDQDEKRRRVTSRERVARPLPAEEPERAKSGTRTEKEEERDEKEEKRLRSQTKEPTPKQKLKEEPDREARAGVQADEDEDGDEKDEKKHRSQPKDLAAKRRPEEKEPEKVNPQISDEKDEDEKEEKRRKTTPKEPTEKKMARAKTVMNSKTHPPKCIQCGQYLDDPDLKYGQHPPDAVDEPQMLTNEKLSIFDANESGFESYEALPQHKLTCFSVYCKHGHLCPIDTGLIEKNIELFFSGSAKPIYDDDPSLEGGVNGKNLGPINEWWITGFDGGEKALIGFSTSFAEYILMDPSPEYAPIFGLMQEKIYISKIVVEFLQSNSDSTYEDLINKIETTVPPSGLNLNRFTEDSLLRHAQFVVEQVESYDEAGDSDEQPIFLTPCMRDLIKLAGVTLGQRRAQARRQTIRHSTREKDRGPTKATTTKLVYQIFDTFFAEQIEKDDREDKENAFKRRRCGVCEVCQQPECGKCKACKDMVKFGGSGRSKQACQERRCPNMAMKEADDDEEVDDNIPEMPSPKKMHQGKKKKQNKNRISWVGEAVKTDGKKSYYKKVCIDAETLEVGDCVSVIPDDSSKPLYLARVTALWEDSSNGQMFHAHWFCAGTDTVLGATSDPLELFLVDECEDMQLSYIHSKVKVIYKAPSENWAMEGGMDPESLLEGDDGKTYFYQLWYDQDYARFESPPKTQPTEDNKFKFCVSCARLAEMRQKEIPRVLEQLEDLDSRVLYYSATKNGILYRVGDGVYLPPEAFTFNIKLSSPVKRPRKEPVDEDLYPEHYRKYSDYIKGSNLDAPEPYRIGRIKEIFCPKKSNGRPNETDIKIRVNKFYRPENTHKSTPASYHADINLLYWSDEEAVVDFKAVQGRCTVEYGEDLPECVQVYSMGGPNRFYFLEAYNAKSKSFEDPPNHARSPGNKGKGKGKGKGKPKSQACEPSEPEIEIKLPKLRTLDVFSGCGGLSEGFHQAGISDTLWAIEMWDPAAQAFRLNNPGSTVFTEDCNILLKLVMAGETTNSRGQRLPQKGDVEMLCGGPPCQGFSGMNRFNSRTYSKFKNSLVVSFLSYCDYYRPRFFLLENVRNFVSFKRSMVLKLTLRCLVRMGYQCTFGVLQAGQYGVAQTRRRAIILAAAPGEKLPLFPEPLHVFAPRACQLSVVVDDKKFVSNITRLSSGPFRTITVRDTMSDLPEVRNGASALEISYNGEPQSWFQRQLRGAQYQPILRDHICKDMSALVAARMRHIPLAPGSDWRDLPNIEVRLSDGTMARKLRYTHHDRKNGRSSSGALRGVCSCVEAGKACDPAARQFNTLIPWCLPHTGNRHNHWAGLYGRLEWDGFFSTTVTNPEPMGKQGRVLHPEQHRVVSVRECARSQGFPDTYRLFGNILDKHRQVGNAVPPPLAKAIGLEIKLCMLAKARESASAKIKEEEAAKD

Kd: ~150 nM
B1: CD133 (protein)
chain: GGQPSSTDAPKAWNYELPATNYETQDSHKAGPIGILFELVHIFLYVVQPRDFPEDTLRKFLQKAYESKIDYDKPETVILGLKIVYYEAGIILCCVLGLLFIILMPLVGYFFCMCRCCNKCGGEMHQRQKENGPFLRKCFAISLLVICIIISIGIFYGFVANHQVRTRIKRSRKLADSNFKDLRTLLNETPEQIKYILAQYNTTKDKAFTDLNSINSVLGGGILDRLRPNIIPVLDEIKSMATAIKETKEALENMNSTLKSLHQQSTQLSSSLTSVKTSLRSSLNDPLCLVHPSSETCNSIRLSLSQLNSNPELRQLPPVDAELDNVNNVLRTDLDGLVQQGYQSLNDIPDRVQRQTTTVVAGIKRVLNSIGSDIDNVTQRLPIQDILSAFSVYVNNTESYIHRNLPTLEEYDSYWWLGGLVICSLLTLIVIFYYLGLLCGVCGYDRHATPTTRGCVSNTGGVFLMVGVGLSFLFCWILMIIVVLTFVFGANVEKLICEPYTSKELFRVLDTPYLLNEDWEYYLSGKLFNKSKMKLTFEQVYSDCKKNRGTYGTLHLQNSFNISEHLNINEHTGSISSELESLKVNLNIFLLGAAGRKNLQDFAACGIDRMNYDSYLAQTGKSPAGVNLLSFAYDLEAKANSLPPGNLRNSLKRDAQTIKTIHQQRVLPIEQSLSTLYQSVKILQRTGNGLLERVTRILASLDFAQNFITNNTSSVIIEETKKYGRTIIGYFEHYLQWIEFSISEKVASCKPVATALDTAVDVFLCSYIIDPLNLFWFGIGKATVFLLPALIFAVKLAKYYRRMDSEDVYDDVETIPMKNMENGNNGYHKDHVYGIHNPVMTSPSQH
